Laboratory results: patent CN117677637A (PETEMEDI LTD, dated 2024)

T1: 犬CD20 (canine CD20, B淋巴细胞抗原CD20, full length, wild type) (canine (dog), UniProt Q3C2E2 1-297)
T1 construct: Stably expressed from full-length cDNA on MDCK II (or HEK293) cells for flow cytometry and ADCC; naturally expressed on CLBL-1 canine lymphoma cells in the CDC assay; also called cCD20; MS4A1
T1 chain: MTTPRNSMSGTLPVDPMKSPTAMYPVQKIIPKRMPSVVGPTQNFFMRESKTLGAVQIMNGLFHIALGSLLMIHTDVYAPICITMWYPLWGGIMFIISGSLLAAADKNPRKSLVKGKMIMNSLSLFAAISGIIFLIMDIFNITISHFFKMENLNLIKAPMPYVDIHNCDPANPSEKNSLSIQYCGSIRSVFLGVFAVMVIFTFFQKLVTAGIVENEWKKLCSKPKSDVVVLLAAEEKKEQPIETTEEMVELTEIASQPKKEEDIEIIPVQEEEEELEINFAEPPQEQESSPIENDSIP


Molecular target: T1, 犬CD20 (canine CD20, B淋巴细胞抗原CD20, full …)
Assay: flow cytometry, 10 ug/ml antibody on MDCK II cells expressing canine CD20 (Fig 3A)

Binder | binding result
PMX001 (antibody, V domains shown, Fully canine mAb; also called PMX001 mAb) VH: EVQLVESGGDLVKPGGSLRLSCVASGFTFSSYHMSWVRQAPGKGLQWVAYINSGGSSTTYADAVKGRFTISRDNAKKTLYLQMNSLRAEDTAVYYCSTFDYWGQGTLVTVSS VL: SYVLTQLPSRNVTLKQPAHITCGGDNIGSKSVHWYQQKLGQAPVLIIYYDTRRPTGIPERFSGANSGNTATLTISGALAEDEADYYCQVWDSSGNVFGGGTHLTVL | binds
PMX004 (antibody, V domains shown, Fully canine mAb; also called PMX004 mAb) VH: EVQLVESGGELVKPGGSLRVSCVASGITFSRYHMSWVRQAPGKGLQWVAFINTDRSSPKYADSVKGRFTISRDNAKNTLYLQMNSLRAEDTAIYYCTSFDYWGQGTLVTVSS VL: SYVLTQLPSKNVTLKQPAHITCGGDNIGSKSVHWYQQKLGQAPVLIIYYDSSRPTGIPERFSGANSGNTATLTISGALAEDEADYYCQVWDSSANVFGGGTHLTVL | binds
PMX005 (antibody, V domains shown, Fully canine mAb; also called PMX005 mAb) VH: EVQLVESGGDLVKPGGSLRLSCVASGFTFSRYHMSWVRQAPGKGLQWVAYINSGGSDSDYADAVKGRFTISRDNAKNTLYLQMNSLRAEDTAVYYCTSLDYWGQGTLVTVSS VL: SYVLTQLPSKNVTLKQPAHITCGGDNIGSKSVHWYQQKLGQAPVLIIYYDSSRPTGIPERFSGANSGNTATLTISGALAEDEADYYCQVWDRSGNVFGGGTHLTVL | binds

Molecular target: T1, 犬CD20 (canine CD20, B淋巴细胞抗原CD20, full …)
Assay: flow cytometry, 10 ug/ml antibody on MDCK II cells expressing canine CD20 (Fig 3B)

Binder | binding result
PMX010 (antibody, V domains shown, PMX003 heavy chain; Constant regions not restated (PMX003: dog IGGB / dog IGLC5); also called PMX010 mAb; SVT) VH: EVQLVESGGDLVKPGGSLRLSCVASGITFSRYHMSWVRQAPGKGLQWVAYINSGGSSTSYPDAVKGRFTISRDNAKNTLYLQMDSLRAEDTALYYCTTFDYWGQGTLVTVSS VL: SYVLTQLPSKSVTLKQPAHITCGGDNIGSKSVHWYQQKLGQAPVLIIYYDSRRPTGIPERFSGANSGNTATLTISGALAEDEADYYCQVWDSSANVFGGGTHLTVL | binds
PMX011 (antibody, V domains shown, PMX003 heavy chain; Constant regions not restated (PMX003: dog IGGB / dog IGLC5); also called PMX011 mAb; TVT) VH: EVQLVESGGDLVKPGGSLRLSCVASGITFSRYHMSWVRQAPGKGLQWVAYINSGGSSTSYPDAVKGRFTISRDNAKNTLYLQMDSLRAEDTALYYCTTFDYWGQGTLVTVSS VL: SYVLTQLPSKTVTLKQPAHITCGGDNIGSKSVHWYQQKLGQAPVLIIYYDSRRPTGIPERFSGANSGNTATLTISGALAEDEADYYCQVWDSSANVFGGGTHLTVL | binds

Molecular target: T1, 犬CD20 (canine CD20, B淋巴细胞抗原CD20, full …)
Assay: flow cytometry, 10 ug/ml antibody on MDCK II cells expressing canine CD20 (Fig 3C)

Binder | binding result
PMX081 (antibody, V domains shown) VH: EVQLVQSGGDLVKPGGSLRLSCVASGYTFTRYHMSWVRQAPGKGLQWVAFINSDGTGITYGDAVKGRFTISRDNAKNTLYLQMNSLRAEDTAIYYCTTFDSWGQGTLVTVSS VL: SYVLTQLPSKNVTLKQPAHITCGGDNIGSKSVHWYQQKLGQAPILIIYYDSRRPTGIPERFSGANSGNTATLTISGALAEDEADYYCQVWDSSGNVFGGGTHLTVL | binds
PMX080 (antibody, V domains shown) VH: EVQLVESGGDLVKPGGSLRLSCVASGLTFSRYYMNWVRQAPGKGLQWVAYIDSGGSPTNYADAVKGRFTISRDNAKNTLYLQMNSLRAEDTAVYYCSSFDYWGQGTLVTVSS VL: SYVVTQLPSNTVTLKQPAHITCGGDNIGSKSVHWYQQKLGQAPVLIIYYDSRRPTGIPERFSGANSGNTATLTISGALAEDEADYYCQVWDSSANVFGGGTHLTVL | binds
PMX066 (antibody, V domains shown, Canine mAb) VH: AVQLVESGGDLVKPGGSLRLSCVASGITFSRYHMSWVRQAPGKGLQWVAYINSGGSATSYTDAVKGRFSISRDNGKNTLYLQMNSLRVEDSAVYYCTTLDLWGQGTLVTVSS VL: SYVLTQLPSKNVTLKQPAHITCGGDNIGSKSVHWYQQKLGQAPVLIIYYDSRRPTGIPERFSGANSGNTATLTINGALAEDEADYYCQMWDSSANVFGGGTHLTVL | binds
PMX071 (antibody, V domains shown) VH: EVHLVESGGDLVKPGGSLRLSCVASGITFNRYYMNWVRQTPGKGLQWVAYIDSGGSPTTYADAVKGRFTISRDNAKNTLYLQMNSLRAEDTAVYYCTSFDYWGQGTLVTVSS VL: SYVLTQLPSKNVTLKQPAHITCGGDNIGSKSVHWYQQKLGQAPILIIYYDTSRPTGIPERFSGANSGNTATLTISGALAEDEADYYCQVWDSSANVFGGGTHLTVL | binds
PMX076 (antibody, V domains shown) VH: EVQLVESGGDLVKPGGSLRLSCVASGITFSRYYMNWVRQAPGKGLQWVAYIDSGGSPTTYADAVKGRFTISRDNAKKALYLQMNSLRAEDTAVYYCTSFDYWGQGTLVTVSS VL: SYVLTQLPSKNVTLKQPAHITCGGDNIGSKSVHWYQQKLGQAPVLIIYYDSSRPTGIPERFSGANSGNTATLTISGALAEDEADYFCQVWDSSANVFGGGTHLTVL | binds
PMX075 (antibody, V domains shown) VH: EVQLVESGGDLVKPGGSLRLSCVASGITFSRYHMSWVRQAPGKGLQWVAFINTGRSSTNYADAVAGRFTISRDNAKNTLYLQMNGLTVEDTAVYYCSTLDYWGQGTLVTVSS VL: SYVLTQLPSKSVTLKQPAHITCGGDNIGSKSVHWYQQKLGQAPILIIYYDNNRPTGIPERFSGANSGNTATLTISGALAEDEADYYCHVWDSSVNVFGGGTHLTVL | binds
PMX078 (antibody, V domains shown) VH: EVQLVESGGDLVKPGGSLRLSCVASGLTFSRYHMSWIRQAPGKGLQWVAYISSGGSSTNYAGSVKGRFTVSRDNAKNTLYLQMNSLRAEDTAVYYCTSLDYWGQGTLVTVSS VL: SYVLTQLPSKNVTLKQPAHITCGGDNIGSKSVHWYQQKLGQAPVLIIYYDSRRPTGIPERFSGANSGNTATLTISGALAEDEADYYCQVWDSSDNVFGGGTHLTVL | binds
PMX069 (antibody, V domains shown, also called PMX0069) VH: EMQLVESGGALVKPGGSLRLSCVASGFTFRRYHMSWVRQAPGQGLQWVAYIDSDGSPTSYGDSVKGRFTISRDNAKNTLFLQMNSLRVDDTAVYYCTTLDYWGRGTLVTVSS VL: SYVLTQVPSKNVTLKQPAHITCGGDNIGGKSVHWYQQKLGQAPLLIIYYDTRRPTGIPERFSGANSGNTATLTISRALAEDEADYYCQVWDSSGNVFGGGTHLTVI | binds
PMX074 (antibody, V domains shown) VH: EVQLVESGGDLVKPGGSLRLSCVASGFTFSRYYMTWVRQAPGKGLQWVAYINSDRRSTTYADAVKGRFTISRDNAKNTLYLQMNSLRAEDTAVYYCTTLEYWGQGTLVTVSS VL: SYVLTQLPSKNVTLKQPAHITCGGDNIGSKSVHWYQQKLGQAPVLIIYYDSRRPTGIPERFSGANSGNTATLTINGALAEDEADYYCQVWDSSANVFGGGTHLTVL | binds
PMX073 (antibody, V domains shown) VH: EVQLVESGGDLVKPGGSLRLSCVASGFTFSRYYMNWVRQAPGKGLQWVAFITSGGSSTSYGDAVKGRFTISRDNAKNTLYLQMNSLRAEDTAVYYCTSFDYWGQGTLVTVSS VL: SYVLTQLPSKNVTLKQPAHITCGGDNIGSKSVHWYQQKLGQAPVLIIYYASSRPTGIPERFSGANSGNTATLTISGALAEDEADYYCQVWDSSANVFGGGTHLTVL | binds
PMX077 (antibody, V domains shown) VH: EVQLVESGGDLVKPGGSLRLSCVASGITFSRYYMNWVRQAPGKGLQWVAYINSGGSPTTYADAVKGRFTISRDNAKNTLYLQMNSLRAEDTAVYYCTSFDYWGQGTLVTVSS VL: SYVLTQLPSKNVTLKQPAHITCGGDNIGSKSVHWYQQKLGQAPILIIYYDTSRPTGIPERFSGANSGNTATLTISGALAEDEADYYCQVWDSSANVFGGGTHLTVL | binds
PMX067 (antibody, V domains shown, also called PMX0067) VH: EIQLVESGGDLVKPGGSLRLSCVASGFTFSRYHMSWVRQAPGKGLQWVAYINTGGSNTNYADAVKGRFTISRDNAKNTLYLQMNSLRAEDTAVYYCTTLDSWGQGTLVTVSS VL: SYVLTQLPFKNVTLKQPAHITCGGDNIGSKSVHWYQQKLGQAPVLIIYYDSRRPTGIPERFSGANSGNTATLTISGALAEDEADYYCQVWDSSVNVFGGGTHLTVL | binds
PMX072 (antibody, V domains shown) VH: EVQLVESGGDLVKPGGSLRLSCVASGFTFSRYHMSWVRQAPGKGLQWVAFINTGRSSTNYADAVAGRFTISRDNAKNTLYLQMNSLRAEDTAVYYCSTLDYWGQGTLVTVSS VL: SYVLTQLPSKNVTLKQPAHITCGGDNIGSKSVHWYQQKLGQAPVLIIYYDSSRPTGIPERFSGANSGNTATLTISGALAEDEADYYCQVWDSSANVFGGGTHLTVL | binds
PMX070 (antibody, V domains shown) VH: EMQLVESGGDLVKPGGSLRLSCVASGFTFSRYHMSWVRQAPGKGLQWVAYINSGGSPTNYADAVKGRFTISRDNAKNTLYLQMNSLRAEDTAVYYCTTYDQWGQGTLVTVSS VL: SYVLTQLPSKSVTLKQPAHITCGGDNIGSKSVHWYQQKLGQAPVLIIYYDSSRPTGIPERFSGANSGNTATLTISGALAEDEADYYCQVWDTSANVFGGGTHLTVL | binds
PMX079 (antibody, V domains shown) VH: EVQLVESGGDLVKPGGSLRLSCVASGLTFSRYHMSWVRQAPGKGLQWVAFINSGRSDTTYADAVKGRFTISRDNAKNTLYLQMNSLRAEDTAVYYCTTFDYWGQGTLVTVSS VL: SYVLTQLPSKNVTLKQPAHITCGGDNIGSKSVHWYQQKLGQAPALIIYYDSSRPTGIPERFSGANSGNTATLTISGALAEDEADYYCQVWDSSANVFGGGTHLTVL | binds
